# Assay results: article PMC4822561, “Structure of a quinolone-stabilized cleavage complex of topoisomerase IV from Klebsiella pneumoniae and comparison with a related Streptococcus pneumoniae complex” (Acta Crystallographica. Section D, Structural Biology, 2016)
# B1: S. pneumoniae topoisomerase IV ParC55 (domain or fragment)
# chain: MSNIQNMSLEDIMGERFGRYSKYIIQDRALPDIRDGLKPVQRRILYSMNKDSNTFDKSYRKSAKSVGNIMGNFHPHGDSSIYDAMVRMSQNWKNREILVEMHGNNGSMDGDPPAAMRYTEARLSEIAGYLLQDIEKKTVPFAWNFDDTEKEPTVLPAAFPNLLVNGSTGISAGYATDIPPHNLAEVIDAAVYMIDHPTAKIDKLMEFLPGPDFPTGAIIQGRDEIKKAYETGKGRVVVRSKTEIEKLKGGKEQIVITEIPYEINKANLVKKIDDVRVNNKVAGIAEVRDESDRDGLRIAIELKKDANTELVLNYLFKYTDLQINYNFNMVAIDNFTPRQVGIVPILSSYIAHRREVILARSRFDKEKAEKRLHIVEGLIRVISILDEVIALIRASENKADAKENLKVSYDFTEEQAEAIVTLQLYRLTNTDVVVLQEEEAELREKIAMLAAIIGDERTMYNLMKKELREVKKKFATPRLSSLEDTAKALE
# notes: ParC breakage-reunion domain (ParC55), S. pneumoniae isolate 7785 (St George's Hospital); two residues between ParC and the His6 tag; also called ParC N-terminal domain; ParC subunit; source: E. coli BL21(λDE3) pLysS, pET-29a (C-terminal His6); purification protocol in the Supporting Information
# B2: K. pneumoniae topoisomerase IV ParC breakage-reunion domain (ParC55; residues 1–490) (domain or fragment, K. pneumoniae (strain ATCC 35657))
# chain: MSDMAERLALHEFTENAYLNYSMYVIMDRALPFIGDGLKPVQRRIVYAMSELGLNASAKFKKSARTVGDVLGKYHPHGDSACYEAMVLMAQPFSYRYPLGDGQGNWGAPDDPKSFAAMRYTESRLSKYAELLLSELGQGTVDWVPNFDGTLQEPKMLPARLPNILLNGTTGIAVGMATDIPPHNLREVAKAAITLIEQPKTTLDELLDIVQGPDFPTEAEIITSRAEIRKIYQNGRGSVRMRAVWSKEDGAVVITALPHQVSGAKVLEQIAAQMRNKKLPMVDDLRDESDHENPTRLVIVPRSNRVDMEQVMNHLFATTDLEKSYRINLNMIGLDGRPAVKNLLEILSEWLVFRRDTVRRRLNHRLEKVLKRLHILEGLLVAFLNIDEVIEIIRTEDEPKPALMSRFGISETQAEAILELKLRHLAKLEEMKIRGEQSELEKERDQLQAILASERKMNNLLKKELQADADAFGDDRRSPLHEREEAKAMS
# notes: ParC breakage-reunion domain (ParC55), K. pneumoniae strain ATCC 35657, residues 1-490; In the crystal this stretch was joined on one chain with ParE 390-631 (see m1: M-ParE(390-631)-EF-ParC(1-490)-His6); written alone for the pair rows; also called ParC NTD 1–490; ParC subunit; source: E. coli BL21(λDE3) pLysS, pET-29a; purification protocol in the Supporting Information
# B3: S. pneumoniae topoisomerase IV ParE30 (domain or fragment)
# chain: KNKKDKGLLSGKLTPAQSKNPAKNELYLVEGDSAGGSAKQGRDRKFQAILPLRGKVINTAKAKMADILKNEEINTMIYTIGAGVGADFSIEDANYDKIIIMTDADTDGAHIQTLLLTFFYRYMRPLVEAGHVYIALPPLYKMSKGKGKKEEVAYAWTDGELEELRKQFGKGATLQRYKGLGEMNADQLWETTMNPETRTLIRVTIEDLARAERRVNVLMGDKVEPRRKWIEDNVKFTLEEATVF
# notes: ParE TOPRIM domain (ParE30), S. pneumoniae isolate 7785 (St George's Hospital); the limits fit the printed Glu474 and Glu475; also called ParE C-terminal domain; ParE TOPRIM domain; source: E. coli BL21(λDE3) pLysS, pET-19b (N-terminal His10); purification protocol in the Supporting Information
# What was measured:
# [1] = target: the molecule itself; experiment: crystal structure; S. pneumoniae ParC55:ParE30:18-mer E-site DNA 1:1:1.2 at 4 mg/ml, 2 mM levofloxacin, 10 mM MgCl2; capillary counter-diffusion, 304 K; 2.9 Å, space group P3(1)21
# [2] = target: the molecule itself; experiment: crystal structure; K. pneumoniae ParE-ParC fusion (4.5 mg/ml) co-crystallised with pre-cut 34-mer E-site DNA (1:1.2 protein:DNA), 2 mM levofloxacin, 10 mM MgCl2; vapour diffusion, 298 K; 3.35 Å, space group P2(1)
# [3] = target: B1; experiment: crystal structure; S. pneumoniae ParC55:ParE30:18-mer E-site DNA 1:1:1.2 at 4 mg/ml, 2 mM levofloxacin, 10 mM MgCl2; capillary counter-diffusion, 304 K; 2.9 Å, space group P3(1)21; details: both partners purified
binder,measurement,setting,value
B1,binding result,[1],binds
B2,stoichiometry N,[2],2
B3,binding result,[3],binds
